Data published in the supplement of paper PMC10567573.

B1: ZNF232 (parent)
chain: HSGEKPFICKECGKAYGWCSELIR

Variants of: B1
Experiment: protein stability index of a GFP-peptide fusion (GPS, HEK-293T) (PSI 1-6); higher = more stable
Settings: c terminus: a fixed tail appended
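Further: lentivirally expressed fusions sorted by FACS into six bins by GFP to DsRed ratio, PSI derived from sequencing read proportions per bin multiplied by bin number.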

Protein stability index, by site and new letter:
I8: S 2.28; M 2.38; Y 1.74; T 1.23; A 1.7; F 1.51; Q 2.02; H 1.79; E 2.22; K 2.09; R 1.44; N 2.58; L 1.75; P 1.81; W 1.69; D 2.07; G 2.01; C 2.46; V 1.58
G13: C 2.22; W 1.53; N 2.1; A 2.29; Q 1.44; S 1.88; K 1.42; L 1.49; E 2.14; M 1.89; D 1.97; R 1.7; T 1.65; Y 2.12; H 1.77; V 2.39; P 1.65; I 1.76; F 1.49
G17: R 1.65; H 2.09; E 1.82; V 1.52; S 1.8; M 2.2; K 1.6; A 1.84; Q 2.2; F 1.97; L 1.82; P 2.54; I 2.51; Y 2.24; D 2.2; C 3.39; N 1.38; W 2.2; T 1.56
K5: D 2.17; C 1.8; A 2.1; V 2.08; R 2.57; H 1.84; N 2.23; L 1.65; Y 1.74; W 1.96; M 2.05; E 3.4; G 2.38; I 2.21; S 2.21; P 2.63; T 1.86; F 1.65; Q 2.12
L22: K 1.96; F 1.94; H 3.29; E 2.11; A 2.24; C 4.76; D 2.3; G 2; I 1.73
E11: S 2.31; N 1.61; K 1.62; L 1.7; T 2.48; Y 1.98; G 2.19; A 2.22; W 2.14; Q 1.52; H 2.24; D 1.88; I 2.27; V 2.04; R 2.65; F 1.77; M 2.02; C 2.3; P 1.58
C9: L 2.25; Q 2.48; G 1.97; A 1.94; R 2.32; M 2.6; W 2.43; H 3.06; T 2.34; N 2.09; K 2.09; V 2.33; Y 2.68; S 1.92; I 2.54; E 2.3; P 2.23; D 2.71; F 2.78
A15: C 2.76; N 1.83; F 1.92; M 1.9; R 2.14; T 2.05; D 1.69; S 2.14; Y 1.85; W 1.75; K 1.69; E 1.81; Q 2.11; L 1.49; P 2.29; V 2.01; I 2.34; G 1.45; H 1.89
C12: F 2.38; E 2.64; R 1.79; N 2.72; V 2.79; M 2.81; H 1.43; L 3.03; Y 2.15; I 2.5; T 2.21; A 1.85; P 1.81; D 2.44; Q 1.88; G 2.15; W 2.18; K 2.33; S 2.42
C19: K 2.08; L 1.69; A 2.06; N 2.08; T 2.09; E 2.5; D 1.94; Y 1.54; V 1.68; P 2.03; G 1.89; W 1.37; Q 2.39; R 1.73; F 1.69; I 1.89; M 2.13; H 1.82; S 2.83
E21: R 1.99; F 1.92; L 2.2; A 2.27; I 2.07; T 2.3; N 1.38; C 2.8; Y 2.12; P 2.5; M 2.07; V 2.84; S 1.21; Q 2.31; W 2.11; K 2.26; G 2.18; H 3.87; D 1.86
W18: Y 1.79; C 2.18; N 2.03; A 1.85; I 2.46; P 1.81; K 1.78; H 2.28; R 1.9; D 2.67; L 2.09; M 2.57; T 1.83; G 2.43; V 2.25; Q 2.49; E 2.95; F 1.55; S 2.67
K10: I 2.01; R 1.76; T 1.66; Y 1.99; M 1.96; A 1.68; E 2.33; S 2.09; L 1.92; C 1.7; P 2.07; D 1.66; H 1.75; N 1.82; V 1.82; F 1.9; W 1.84; Q 2.01; G 1.96
S20: P 1.87; M 1.75; T 2.11; A 2.34; W 1.77; R 3.24; D 1.72; K 2.2; Q 1.98; E 2.07; I 2.17; Y 1.7; N 2.1; C 2.96; V 2; H 2.33; G 1.96; L 1.39; F 2.11
E4: W 1.54; Y 1.81
F7: S 2.79; R 2.12; G 2.52; L 2.05; C 1.73; M 2.1; I 2.56; K 2.54; V 1.89; Q 2.08; N 2.24; E 2.7; Y 2.52; W 2.09; P 2.11; H 2.73; A 2.22; D 2.29; T 2
K14: N 1.67; Q 1.87; R 1.61; D 2.01; F 2.02; T 2.24; M 1.96; V 1.71; G 2.8; H 1.61; S 1.7; A 2.39; E 1.61; C 2.73; L 1.44; Y 1.98; I 2.04; P 1.53; W 2.68
P6: C 2.45; V 2.12; N 2.37; A 1.74; E 2.37; R 2.23; Y 1.74; I 1.83; F 1.66; S 1.98; Q 1.35; H 2.04; K 2.91; W 1.69; M 2.04; L 2.2; D 2.68; G 2.08; T 2.3
Y16: C 2.5; R 2.06; L 1.25; K 2.11; Q 2.33; V 1.54; P 1.61; T 2.49; D 2.16; W 2.1; N 1.88; A 1.58; H 3.04; G 1.93; F 1.6; M 1.94; E 1.75; S 1.99; I 2.06
